# According to US20230227537A1 (VIB VZW, published 2023):
# Positions count from the first letter of the chain named. Names and notes keep the numbering of the source.
# B1: VHH72_h1 (VHH)
# VHH: EVQLVESGGGLVQPGGSLRLSCAASGRTFSEYAMGWFRQAPGKEREFVATISWSGGSTYYTDSVKGRFTISRDNAKNTVYLQMNSLRPEDTAVYYCAAAGLGTVVSEWDYDYDYWGQGTLVTVSS
# B2: VHH72_h1(S56A) (VHH)
# VHH: B1 VHH with S57A
# B3: SARS VHH-72 (VHH)
# VHH: B1 VHH with E1Q, V5Q, P14A, R87K, E89D, L120Q
# B4: VHH72_h1 (E1D) (VHH)
# VHH: B1 VHH with E1D
# Experiments:
# [1] = biological target: SARS-CoV-1 spike, full length, on cells or on pseudotyped virus (SARS-CoV-1, UniProt P59594 14-1255); test: cell-based or functional assay
# [2] = biological target: SARS-CoV-2 RBD protein Avi-tag biotinylated (AcroBiosystems SPD-C82E9) (SARS-CoV-2, UniProt P0DTC2 330-518)
# SARS-CoV RBD = SARS-CoV RBD (SARS-CoV-1, UniProt P59594 320-502)
binder,measurement,setting,value
B1,"IC50, VSV-dG SARS-CoV-1 spike pseudotype neutralization",[1],0.491 µg/mL
B2,"IC50, VSV-dG SARS-CoV-1 spike pseudotype neutralization",[1],0.045 µg/mL
same,fold better neutralization than parental VHH72,[1],10 fold
B3,IC50,[2],16 nM
B4,koff,SARS-CoV RBD,0.00219 s⁻¹
